Key:
B7H4-IgV/B7H3-IgC = biological target: T1, B7H4-IgV/B7H3-IgC; test: flow cytometry, transiently transfected HEK cells, antibody at 10 µg/mL, MFI as % of the control antibody of the panel [continued) III]
T1 construct: also called chimeric molecule with the IgV domain of B7H4 and the IgC domain of B7H3
T1 full-length chimeric protein on cells: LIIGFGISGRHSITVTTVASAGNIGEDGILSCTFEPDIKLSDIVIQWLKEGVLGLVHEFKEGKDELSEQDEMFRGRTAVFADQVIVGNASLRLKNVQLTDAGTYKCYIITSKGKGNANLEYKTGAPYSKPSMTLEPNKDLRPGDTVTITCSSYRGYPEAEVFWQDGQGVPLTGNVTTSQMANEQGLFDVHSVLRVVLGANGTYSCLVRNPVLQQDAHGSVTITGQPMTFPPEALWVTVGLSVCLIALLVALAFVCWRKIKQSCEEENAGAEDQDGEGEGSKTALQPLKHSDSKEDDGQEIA
Procedure: (§1) Expression constructs were prepared encoding human B7H4, human B7H3 (Uniprot accession no. Q5ZPR3-1; SEQ ID NO: 9), or a chimeric molecule containing the IgV domain of B7H3 and the IgC domain of B7H4 (B7H3-IgV/B7H4-IgC; SEQ ID NO: 11), or a chimeric molecule containing the IgV domain of B7H4 and the IgC domain of B7H3 (B7H4-IgV/B7H3-IgC; SEQ ID NO: 10). HEK cells were transiently transfected to express these constructs.
(§2) Cells (3×10⁴ cell/well) were incubated in polystyrene 96-well round-bottom plates (Greiner bio-one, cat. no. 650101) with serial dilutions of antibodies (range 0.0046 to 10 μg/mL in 3-fold dilution steps) in 50 μL PBS/0.1% BSA/0.02% azide (FACS buffer) at 4° C. for 30 min. After washing twice in FACS buffer, cells were incubated with secondary antibody at 4° C. for 30 min. As a secondary antibody, R-Phycoerythrin (PE)-conjugated goat-anti-human IgG F(ab′)₂ (1:500 in staining buffer; Jackson ImmunoResearch Laboratories, Inc., West Grove, PA, cat. no. 109-116-098) was used. Next, cells were washed twice in FACS buffer, re-suspended in 20 μL FACS buffer and analyzed on an iQue Screener (Intellicyt Corporation, USA).

B7H3 = biological target: T2, B7H3; test: flow cytometry, transiently transfected HEK cells, MFI as % of IgG1-B7H3-BRCA84D
T2 construct: also called human B7H3
T2 full-length protein on cells: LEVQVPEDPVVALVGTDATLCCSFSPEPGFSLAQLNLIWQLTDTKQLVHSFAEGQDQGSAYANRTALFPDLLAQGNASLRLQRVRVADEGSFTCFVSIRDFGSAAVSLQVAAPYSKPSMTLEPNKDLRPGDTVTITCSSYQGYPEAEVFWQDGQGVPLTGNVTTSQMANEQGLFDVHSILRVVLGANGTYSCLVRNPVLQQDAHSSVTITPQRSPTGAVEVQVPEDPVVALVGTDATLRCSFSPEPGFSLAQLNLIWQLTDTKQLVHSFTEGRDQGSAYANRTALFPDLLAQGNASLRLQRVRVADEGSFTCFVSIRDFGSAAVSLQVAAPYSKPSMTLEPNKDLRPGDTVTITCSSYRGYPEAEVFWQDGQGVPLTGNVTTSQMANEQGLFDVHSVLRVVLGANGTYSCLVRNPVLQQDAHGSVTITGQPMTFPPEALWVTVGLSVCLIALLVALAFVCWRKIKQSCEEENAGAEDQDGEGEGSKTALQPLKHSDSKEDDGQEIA
Procedure: as §1, §2

B7H3-IgV/B7H4-IgC = biological target: T3, B7H3-IgV/B7H4-IgC; test: flow cytometry, transiently transfected HEK cells, antibody at 10 µg/mL, MFI as % of the control antibody of the panel
T3 construct: also called chimeric molecule with the IgV domain of B7H3 and the IgC domain of B7H4
T3 full-length chimeric protein on cells: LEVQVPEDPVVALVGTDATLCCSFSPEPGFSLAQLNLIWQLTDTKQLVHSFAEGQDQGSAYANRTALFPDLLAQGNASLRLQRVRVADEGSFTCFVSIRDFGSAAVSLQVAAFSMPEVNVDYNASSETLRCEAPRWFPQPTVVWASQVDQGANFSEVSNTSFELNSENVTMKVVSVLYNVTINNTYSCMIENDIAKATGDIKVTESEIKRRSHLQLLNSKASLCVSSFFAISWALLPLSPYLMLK
Procedure: as §1, §2

Binder | binding result (B7H4-IgV/B7H3-IgC) | binding result (B7H3) | binding result (B7H3-IgV/B7H4-IgC)
bsIgG1-huCD3-FEALxB7H4-C2-FEAR (bispecific antibody, also called bslgG1-huCD3-FEALxB7H4-C2-FEAR) heavy 1: not shown light 1: not shown heavy 2: EVQLVQSGAEVKKPGASVKVSCKASGYTFTSYWIGWVRQAPGQGLEWIGDIYPGGGYTNYNEKFKGRVTITRDTSTSTAYLELSSLRSEDTAVYYCARLDGSSYRGAMDSWGQGTLVTVSSASTKGPSVFPLAPSSKSTSGGTAALGCLVKDYFPEPVTVSWNSGALTSGVHTFPAVLQSSGLYSLSSVVTVPSSSLGTQTYICNVNHKPSNTKVDKRVEPKSCDKTHTCPPCPAPEFEGGPSVFLFPPKPKDTLMISRTPEVTCVVVAVSHEDPEVKFNWYVDGVEVHNAKTKPREEQYNSTYRVVSVLTVLHQDWLNGKEYKCKVSNKALPAPIEKTISKAKGQPREPQVYTLPPSREEMTKNQVSLTCLVKGFYPSDIAVEWESNGQPENNYKTTPPVLDSDGSFFLYSRLTVDKSRWQQGNVFSCSVMHEALHNHYTQKSLSLSPGK light 2: DIQMTQSPSSLSASVGDRVTITCKASQGFNKYVAWYQQKPGKAPKLLIYYTSTLQPGVPSRFSGSGSGRDYTLTISSLQPEDFATYYCLQYGNLLYAFGQGTKVEIKRTVAAPSVFIFPPSDEQLKSGTASVVCLLNNFYPREAKVQWKVDNALQSGNSQESVTEQDSKDSTYSLSSTLTLSKADYEKHKVYACEVTHQGLSSPVTKSFNRGEC | binds | no binding (tested: 10 µg/mL) | –
bsIgG1-huCD3-FEALxB7H4-C3-FEAR (bispecific antibody, also called bslgG1-huCD3-FEALxB7H4-C3-FEAR) heavy 1: not shown light 1: not shown heavy 2: EVQLVQSGAEVKKPGASVKVSCKASGYTFTNFWIHWVRQAPGQGLEWIGEIDPSDSYTNYNQKFKGRVTITRDTSTSTAYLELSSLRSEDTAVYYCAREITTVDYWGQGTLVTVSSASTKGPSVFPLAPSSKSTSGGTAALGCLVKDYFPEPVTVSWNSGALTSGVHTFPAVLQSSGLYSLSSVVTVPSSSLGTQTYICNVNHKPSNTKVDKRVEPKSCDKTHTCPPCPAPEFEGGPSVFLFPPKPKDTLMISRTPEVTCVVVAVSHEDPEVKFNWYVDGVEVHNAKTKPREEQYNSTYRVVSVLTVLHQDWLNGKEYKCKVSNKALPAPIEKTISKAKGQPREPQVYTLPPSREEMTKNQVSLTCLVKGFYPSDIAVEWESNGQPENNYKTTPPVLDSDGSFFLYSRLTVDKSRWQQGNVFSCSVMHEALHNHYTQKSLSLSPGK light 2: DIQMTQSPSSLSASVGDRVTITCSATSSISYMHWYQQKPGKAPKGWIYDTSKLAHGVPSRFSGSGSGTDFTLTISSLQPEDFATYYCHQRRSYPFTFGQGTKVEIKRTVAAPSVFIFPPSDEQLKSGTASVVCLLNNFYPREAKVQWKVDNALQSGNSQESVTEQDSKDSTYSLSSTLTLSKADYEKHKVYACEVTHQGLSSPVTKSFNRGEC | – | no binding (tested: 10 µg/mL) | binds
